# Measurements as given in article PMC10415144, “Structural insights into CodY activation and DNA recognition” (Nucleic Acids Research, 2021).
# How the values were obtained:
# [1] = target: the molecule itself; assay: mass photometry; Refeyn OneMP; 100 nM CodY, ligand-free, 20 mM Tris-HCl pH 8, 200 mM NaCl
# [2] = target: the molecule itself; assay: mass photometry + SEC-MALS; data not shown; EfCodY quadruple mutant in solution
Protein,stoichiometry N [1],stoichiometry N [2]
"Enterococcus faecalis CodY (EfCodY), full length (natural protein, also called CodY from Ef) GAMATLLEKTRQVNELLQKNNLFDVQAELPYNKMAMILGDILESNAYIISSSGDLLGYTEKLDVNNARIKNMFKEKKFPQGYTEAVDMLKVTEANIPIDSDLTAFPFESRELYPFGLTTIVPLYGAGKRLGTIILARVEKSFNEDDLVLAEYSATVVGMQILYHQSRTIEAEVRSATAVQMAINTLSYSELKAVHAIFEALDGEEGRLTASSIADEIGITRSVIVNALRKLESAGIIESRSLGMKGTYLKVLNQQFIKELEK",2,–
"EfCodY quadruple mutant (Tyr186, Arg238, Leu240 and Tyr246 replaced with Ala) (natural protein, also called EfCodY-mutant) GAMATLLEKTRQVNELLQKNNLFDVQAELPYNKMAMILGDILESNAYIISSSGDLLGYTEKLDVNNARIKNMFKEKKFPQGYTEAVDMLKVTEANIPIDSDLTAFPFESRELYPFGLTTIVPLYGAGKRLGTIILARVEKSFNEDDLVLAEYSATVVGMQILYHQSRTIEAEVRSATAVQMAINTLSASELKAVHAIFEALDGEEGRLTASSIADEIGITRSVIVNALRKLESAGIIESASAGMKGTALKVLNQQFIKELEK",–,2
